Reference: patent US20250235545A1, “POLYPEPTIDE CONJUGATE AND USE THEREOF” (SHANGHAI CHIXI BIOMEDICAL TECHNOLOGY CO., LTD, priority 2024, published 2025)
Values after ≈ are worked out from the molar mass of the structure shown. Read-outs that look alike come from different tables or passages of the source. Where a SMILES comes first, the peptide text is derived from it. The star is where a group is joined. NEt(2-(20S-CPT-7-yl)ethyl) = CCN(CCc1c2c(nc3ccccc13)-c1cc3c(c(=O)n1C2)COC(=O)[C@]3(O)CC)*; X1 = CC[C@@]1(O)C(=O)OCc2c1cc1n(c2=O)Cc2c-1nc1ccccc1c2CCN(C1CCC1)*; X3 = CC[C@@]1(O)C(=O)OCc2c1cc1n(c2=O)Cc2c-1nc1ccccc1c2CCN(C1CC1)*; X7 = CC[C@@]1(O)C(=O)OCc2c1cc1n(c2=O)Cc2c-1nc1ccccc1c2CCN(C)*; Propanoyl(3-maleimido) = O=C1C=CC(=O)N1CCC(=O)*; PEG6 = NCCOCCOCCOCCOCCOCCOCCC(=O)O

Key:
[1] = test system: sarcoma SJSA-1 tumor model; conditions: Table 2
Method: Test objective: To investigate the antitumor efficacy of the above compounds in an animal tumor model of sarcoma SJSA-1.
(§1) Test drug: Polypeptide conjugate, Irinotecan, Belotecan and normal saline control group.
(§2) Test animals: 6-8 weeks old BALB/c mice, all female.
(§3) SJSA-1 cells were purchased from ATCC and cultured in a DMEM medium containing 10% fetal bovine serum at 37° C. in 5% CO2. Passaging was performed every three days, and cells within 15 generations were used. 2×10^7 corresponding cells were injected into right chests of nude mice subcutaneously. After a volume of the tumors reached at least 100 mm^3, the mice were grouped randomly, with three mice in each group. Then treatment was started, and the day when the treatment was started was the first day. […] The control group was administered with normal saline. Administration was performed once a week for three weeks.
as §3

[2] = test system: colo320 colorectal cancer tumor model
Method: Test objective: To investigate the antitumor efficacy of the above compounds in an animal tumor model of colo320 colorectal cancer.
as §1, §2
as §3, with “Passaging” for “SJSA-1 cells were purchased from ATCC and cultured in a DMEM medium containing 10% fetal bovine serum at 37° C. in 5% CO2. Passaging”, “used. 7.5×10^6” for “used. 2×10^7”, “least 120” for “least 100”, “for four” for “for three”

[3] = MTD determination in mice (Examples 27, 36, 44); format: in vivo; conditions: female, mouse, in vivo; mice, monitored for 14 d; Table 4
Description: Test animals: 6-8 weeks old mice, all female; mice were grouped randomly, with six mice in each group, administered with drugs at different concentration gradients separately and monitored for 14 d. A mouse was euthanized at a loss of 20% of its initial weight and deemed to have died of poisoning.

[4] = Tumor homogenate activation efficiency, ovarian cancer tissue (Examples 28, 37); format: in vitro ADME; conditions: pH 5.0, 37° C., 2 h; Table 5
Method: (§4) Buffer preparation: 50 mM PH buffer (MES), 250 mM NaCl, pH adjusted to 5.0 with 0.5 M of sodium hydroxide.
(§5) The polypeptide conjugate was prepared into a 1 mg/ml solution with pH 5.0 buffer, 100 μg of tumor tissue homogenate was added, (the tumor tissue homogenate was the homogenate of tumor tissues prepared with a Jingxin F6/10 handheld homogenizer), and the solution was placed at 37° C. for 2 h. The tumor tissue homogenate could effectively activate the polypeptide conjugate and release Belotecan, and the activation efficiencies of the drugs in tumor tissues were compared by high-performance liquid chromatography (HPLC) allowing determination of a decrease in the compounds and an increase in Belotecan:
(§6) Release percentage=peak area of Belotecan/total peak area of Belotecan and all other Belotecan-containing compounds
as §5, with “HPLC” for “high-performance liquid chromatography (HPLC)”, “Belotecan: […]” for “Belotecan:”

[5] = Tumor homogenate activation efficiency, sarcoma tissue (Examples 28, 37); format: in vitro ADME; conditions: pH 5.0, 37° C., 2 h; Table 5
Method: as §4, §5, §6
as §5, with “HPLC” for “high-performance liquid chromatography (HPLC)”, “Belotecan: […]” for “Belotecan:”

[6] = Tumor homogenate activation efficiency, breast cancer tissue (Examples 28, 37); format: in vitro ADME; conditions: pH 5.0, 37° C., 2 h; Table 5
Method: as §4, §5, §6
as §5, with “HPLC” for “high-performance liquid chromatography (HPLC)”, “Belotecan: […]” for “Belotecan:”

[7] = Tumor homogenate activation efficiency, non-small cell lung cancer tissue (Examples 28, 37); format: in vitro ADME; conditions: pH 5.0, 37° C., 2 h; Table 5
Method: as §4, §5, §6
as §5, with “HPLC” for “high-performance liquid chromatography (HPLC)”, “Belotecan: […]” for “Belotecan:”

[8] = Tumor homogenate activation efficiency, small cell lung cancer tissue (Example 28); format: in vitro ADME; conditions: pH 5.0, 37° C., 2 h; Table 5
Method: as §4, §5, §6

[9] = Homogenate activation efficiency, heart tissue (Examples 28, 37); format: in vitro ADME; conditions: pH 5.0, 37° C., 2 h; Table 5
A2780 (ovarian cancer) = test: cells; format: cell-based; conditions: CCK8, 48 h; Table 1
Method: (§7) Different types of cells were cultured with complete media (RPMI1640 (DMEM high sugar medium)+10% fetal bovine serum+1XP/S+sodium pyruvate 1 mM solution) in an incubator at 37° C. and 5% CO2 until the cells grew to a sufficient number, and the cells were collected, centrifuged at 1,000 g for 5 min, resuspended with an appropriate volume of a 10% RMPI1640 (DMEM high sugar medium) medium and counted. In a 96-well culture plate, 100 μL of cell culture fluid containing different concentrations of drugs was added, control wells (0.1% DMSO) with only corresponding drug solvents without drugs, as well as blank wells (Blank) with only the medium but without cells were set, and three parallel wells were set in each group. After that, the cells after cell counting were inoculated onto 96-well culture plates, with 100 μL of cell suspension per well, and an inoculation concentration of the cells was 5,000 cells (100 μL)/well. The plates were then cultured in a CO2 (5%) incubator at 37° C. for 48 h. After 48 h, 10 μL of a cell proliferation staining reagent (CCK8) was added to each well, the plates were incubated in a cell incubator for around 2 h, and an absorbance at 450 nm was detected.
(§8) Cell survival rates and median inhibitory concentrations of the drugs on the cells were calculated.
as §7, with “serum+1×P/S+sodium” for “serum+1XP/S+sodium”, “adjusted to an appropriate density.” for “counted.”
(§9) Cell survival rates and median inhibitory concentrations (IC50) of the drugs on the cells were calculated.

[10] = test system: A549 (non-small cell lung cancer); test: cells; format: cell-based; conditions: CCK8, 48 h; Table 1
Method: as §7, §8
as §7, with “serum+1×P/S+sodium” for “serum+1XP/S+sodium”, “adjusted to an appropriate density.” for “counted.”
as §9

SJSA-1 (sarcoma tissue) = test: cells; format: cell-based; conditions: CCK8, 48 h; Table 1
Method: as §7, §8
as §7, with “serum+1×P/S+sodium” for “serum+1XP/S+sodium”, “adjusted to an appropriate density.” for “counted.”
as §9

[11] = test system: SKBR3 (breast cancer tissue); test: cells; format: cell-based; conditions: CCK8, 48 h; Table 1
Method: as §7, §8
as §7, with “serum+1×P/S+sodium” for “serum+1XP/S+sodium”, “adjusted to an appropriate density.” for “counted.”
as §9

[12] = 45 mg/kg once a week for three weeks
[13] = 45 mg/kg once a week for four weeks, Table 3
[14] = Table 14 (Example 43), dose 45 mg/kg, once a week for four weeks, BALB/c mice
[15] = Table 13 (Example 42), dose 45 mg/kg, once a week for four weeks, BALB/c mice
[16] = 15 mg/kg once a week for three weeks
[17] = 15 mg/kg once a week for four weeks, Table 3

Structure (SMILES)	Mouse weight (%) [1, 12]	Mouse weight (%) [2, 13]	colo320 (colorectal cancer cell) growth rate (%) [2, 13] [%]	colo320 (colorectal cancer cell) mean tumor volume (mm^3) [2, 13] [mm^3]	MTD at 14 d [3] [mg/kg]	Percentage of release efficiency (%) Ovarian cancer tissue (A2780) [4] [%]	Percentage of release efficiency (%) Sarcoma tissue (SJSA1) [5] [%]	Percentage of release efficiency (%) Breast cancer tissue (SKBR3) [6] [%]	Percentage of release efficiency (%) Non-small cell lung cancer tissue (A549) [7] [%]	Percentage of release efficiency (%) Small cell lung cancer tissue (NCI-H841) [8] [%]	Percentage of release efficiency (%) Heart tissue [9] [%]	IC50 A2780 (ovarian cancer) (A2780 (ovarian cancer)) [mg/L]	IC50 A549 (non-small cell lung cancer) [10] [mg/L]	IC50 SJSA-1 (sarcoma tissue) (SJSA-1 (sarcoma tissue)) [mg/L]	IC50 SKBR3 (breast cancer tissue) [11] [mg/L]	Mouse weight (%) [1, 16]	Mouse weight (%) [2, 17]	other results
CCN(CCc1c2c(nc3ccccc13)-c1cc3c(c(=O)n1C2)COC(=O)[C@]3(O)CC)C(=O)CNC(=O)[C@H](CC(N)=O)NC(=O)[C@H](C)NC(=O)CNC(=O)CCOCCOCCOCCOCCOCCOCCNC(=O)CCN1C(=O)C=CC1=O [MI-6PEG-GANG-D2] ({Propanoyl(3-maleimido)-PEG6}-GANG-{NEt(2-(20S-CPT-7-yl)ethyl)})	+18%	+39%	450.72	499.2	200	69.9	88.4	68.8	65.9	63.1	1.7							SJSA-1 (sarcoma tissue) mean tumor volume (mm^3) [1, 12]: 1065.2 mm^3; SJSA-1 (sarcoma) Growth rate (%) [1, 12]: 918.28%; Mouse weight (%) [2, 14]: +39%; colo320 (colorectal cancer cell) growth rate (%) [2, 14]: 450.72%; colo320 (colorectal cancer cell) mean tumor volume (mm^3) [2, 14]: 499.2 mm^3
CC[C@@]1(O)C(=O)OCc2c1cc1n(c2=O)Cc2c-1nc1ccccc1c2CCN(C)C(=O)CNC(=O)[C@H](Cc1ccccc1)NC(=O)CNC(=O)CNC(=O)CCOCCOCCOCCOCCOCCOCCNC(=O)CCN1C(=O)C=CC1=O [MI-6PEG-GGFG-D1] ({Propanoyl(3-maleimido)-PEG6}-GGFG-X7)		+19%	605.35	671.3	250	67.2	81.5	74.8	71.7	66.3	1.7	6.84 (≈ 5.65 µM)	10.78 (≈ 8.91 µM)	11.79 (≈ 9.74 µM)	16.49 (≈ 13.6 µM)			Mouse weight (%) [2, 15]: +19%; colo320 (colorectal cancer cell) growth rate (%) [2, 15]: 605.35%; colo320 (colorectal cancer cell) mean tumor volume (mm^3) [2, 15]: 671.3 mm^3
CC[C@@]1(O)C(=O)OCc2c1cc1n(c2=O)Cc2c-1nc1ccccc1c2CCN(C(=O)CNC(=O)[C@H](Cc1ccccc1)NC(=O)CNC(=O)CNC(=O)CCOCCOCCOCCOCCOCCOCCNC(=O)CCN1C(=O)C=CC1=O)C1CC1 [MI-6PEG-GGFG-D6] ({Propanoyl(3-maleimido)-PEG6}-GGFG-X3)	+2%	+19%				66.3	80.7	67.1	83.7	72.1	2.4	1.19 (≈ 0.963 µM)	1.31 (≈ 1.06 µM)	0.73 (≈ 0.59 µM)	2.30 (≈ 1.86 µM)	+28%	+29%	
CC[C@@]1(O)C(=O)OCc2c1cc1n(c2=O)Cc2c-1nc1ccccc1c2CCN(C(=O)CNC(=O)[C@H](Cc1ccccc1)NC(=O)CNC(=O)CNC(=O)CCOCCOCCOCCOCCOCCOCCNC(=O)CCN1C(=O)C=CC1=O)C1CCC1 [MI-6PEG-GGFG-D7] ({Propanoyl(3-maleimido)-PEG6}-GGFG-X1)	+27%	+20%				73.6	69.7	72.7	75.2	76.4	2.9	1.68 (≈ 1.34 µM)	1.32 (≈ 1.06 µM)	1.28 (≈ 1.02 µM)	2.40 (≈ 1.92 µM)	+24%	+28%	
